Assay [1] relates to myasthenogenic antibody mAB 198. Nature of the assay: Peptide microarray mimotope screen, binding of mAB 198 to linear and cyclic peptides (fluorescence readout). The arrangement: species or system rat. The conditions noted are these: cyclic mimotopes; binding of mAB 198, relative fluorescent signal after normalization against background. The text has this:
A custom peptide array of 30000 peptides was synthesized, with peptides of 7-19 amino acids in size; the peptides were based on substitution analyses of 176 AChR-MIR peptides with exchanges of each amino acid positions by each of the 20 common amino acids. Peptides were synthesized directly on a microarray, and screened with monoclonal antibody mAB 198 in order to obtain mimotopes with a binding strength which was improved over the human AChR alpha chain MIR-containing sequence […] (Tzartos et al, 1991; Luo et al, 2009) and over a previously published mimotope sequence ([…]), that was derived from Torpedo AchR with the help of antibody mAB 132A (Trinh et al, 2014). In particular, the wild type AChR-MIR sequence is known to structurally mimic to a certain extent the epitope recognized by myasthenogenic, unwanted and disease-causing antibodies from patients. The mimotope peptide library was designed by permutation of each single amino acid position of these two sequences with all natural amino acids in order to provide a maximally diversified collection of peptide variants. All peptides were synthesized in doublets as linear and as cyclic peptides. The aim was to obtain peptides (mimotopes) that mimic the natural epitope of myasthenogenic antibodies.
For the mimotope screen, the antibody mAB 198 (Absolute Antibody Ltd, UK) was used. This is a prototype antibody that was generated in rats using human AChR (Tzartos et al, 1983; Asher et al, 1993). […] Therefore, mAB198 was used as a surrogate probe to screen for new mimotopes that are capable of mimicking the corresponding AChR-MIR epitope or portions of the epitope.
As a readout, binding of mAB 198 to the 30000 linear and cyclic peptides was measured by fluorescence readout, and peptides were ranked according to their relative fluorescent signal after normalization against the background.
The top-ranked 100 linear and cyclic mimotopes are listed in Table 1 and Table 2 above, respectively.

Assay [2] concerns the target monoclonal antibody mAB 198. Put plainly: peptide microarray, fluorescence, linear peptide.

In the case of 181 (VRLRGNPAD) [compound 181], in assay [1], the “relative signal [%]” value came to 9.9%. The same measure, in the same setting: the same measure for 182 (RSRWNPADY) [compound 182]: 9.8%; for 183 (RLRPNPADY) [compound 183]: 9.8%. Consider 184 (RLLWNPADY) [compound 184], for which the “relative signal [%]” value in assay [1] was 9.7%. Regarding 185 (RLRWNPADYGS) [compound 185], the “relative signal [%]” value in assay [1] is on record as 9.7%.

Turning to 186 (GSLRWNPADYQ) [compound 186], the “relative signal [%]” value in assay [1] is listed as 9.7%.

As to 187 (VRLRLNPADYG) [compound 187], the “relative signal [%]” value in assay [1] turned out to be 9.7%. Consider 188 (SLYWNPADY) [compound 188], for which the “relative signal [%]” value in assay [1] was 9.4%. On to 189 (LRGNPAD) [compound 189], for which the “relative signal [%]” value in assay [1] worked out at 9.1%. For the molecule 190 (RWNPADF) [compound 190], in assay [1], the “relative signal [%]” value is recorded as 9.1%. On to 191 (RLRGNPADYGG) [compound 191], for which, in assay [1], the “relative signal [%]” value was 9.0%. Take 192 (WNPDDYR) [compound 192]: the “relative signal [%]” value in assay [1] came to 9.0%. Still for that read-out and setting: the same measure for 193 (LRWNPADYPGI) [compound 193]: 8.9%. With 194 (DVRLRQNPADY) [compound 194], the “relative signal [%]” value in assay [1] is listed as 8.8%. Same read-out and setting: the same measure for 195 (SLRWNPADYHG) [compound 195]: 8.7%. On to 196 (GSLRWNPADYT) [compound 196], for which the “relative signal [%]” value in assay [1] is given as 8.7%.

197 (NPADYGN) [compound 197]: the “relative signal [%]” value in assay [1] stood at 8.7%. Same read-out and setting: the same measure for 198 (LRFNPAD) [compound 198]: 8.6%; for 199 (RLRTNPADY) [compound 199]: 8.6%; for 200 (GGSLRLNPADY) [compound 200]: 8.5%. In assay [2], LRLNPAD [LRLNPAD, linear mimotope] gave a relative signal [%] of 25.2%. Turning to NPADYGR [NPADYGR, linear mimotope], the relative signal [%] in assay [2] worked out at 12.2%.

On to LLGGGSLRFNP, for which the relative signal [%] in assay [2] was found to be 16.7%. With LHWNPAD [LHWNPAD, linear mimotope], the relative signal [%] in assay [2] stood at 15.7%. Consider RGNPADYGG, for which the relative signal [%] in assay [2] is 13%. NPADYHG [NPADYHG, linear mimotope]: in assay [2], the relative signal [%] worked out at 59.3%. Still for that read-out and setting: the same measure for NPADYGH [NPADYGH, linear mimotope]: 18.1%; for RWNPADF [RWNPADF, linear mimotope]: 12.6%.

Regarding NPADYPG [NPADYPG, linear mimotope], the relative signal [%] in assay [2] turned out to be 19.8%.

The molecule SLRINPADY gave a relative signal [%] in assay [2] of 11%. The molecule WNPADYP [WNPADYP, linear mimotope] registered a relative signal [%] in assay [2] of 20.5%. In assay [2], RLRFNPADY gave a relative signal [%] of 11.4%. With LRINPADYG, in assay [2], the relative signal [%] is 12.6%.

The molecule VRLRWNPADYP had a relative signal [%] in assay [2] of 56.7%. The same measure, in the same setting: the same measure for LRWNPADYH: 15.3%.

For GSLRFNP [GSLRFNP, linear mimotope], the relative signal [%] in assay [2] amounted to 21.6%. In the case of NPADYRG [NPADYRG, linear mimotope], the relative signal [%] in assay [2] was 71.4%. Molecule NPADYGD [NPADYGD, linear mimotope] gave a relative signal [%] in assay [2] of 14.1%. RFNPADY [RFNPADY, linear mimotope] returned a relative signal [%] in assay [2] of 21.8%. IDVRLRYNP displayed a relative signal [%] in assay [2] of 12.2%. In the case of RLNPADY [RLNPADY, linear mimotope], the relative signal [%] in assay [2] is 17.7%. In assay [2], NPDDYHG [NPDDYHG, linear mimotope] showed a relative signal [%] of 21.3%. On to RYNPADY [RYNPADY, linear mimotope], for which the relative signal [%] in assay [2] stood at 16.5%. Regarding NPADYGV [NPADYGV, linear mimotope], the relative signal [%] in assay [2] came to 6%. LRRNPADYG: in assay [2], the relative signal [%] worked out at 28.3%. As to QWVDYNLKFNP, the relative signal [%] in assay [2] amounted to 10.9%.

Regarding VRLRYNP [VRLRYNP, linear mimotope], the relative signal [%] in assay [2] stood at 26.3%.

For the molecule WNPADYGHI, the relative signal [%] in assay [2] was 13.7%. The same measure, in the same setting: the same measure for RINPADY [RINPADY, linear mimotope]: 12.2%.

In assay [2], QWIDVRLRYNP returned a relative signal [%] of 13.4%.

For LRGNPAD [LRGNPAD, linear mimotope], the relative signal [%] in assay [2] was 48%. For VRLRRNPAD, the relative signal [%] in assay [2] stood at 25%. Molecule LRRNPAD [LRRNPAD, linear mimotope] came in with a relative signal [%] in assay [2] of 100%. For the molecule IDVRLRFNP, the relative signal [%] in assay [2] was 15%. As for YNLKFNP [YNLKFNP, linear mimotope], the relative signal [%] in assay [2] is 13.7%. Take LRYNPAD [LRYNPAD, linear mimotope]: the relative signal [%] in assay [2] came to 15.9%. For NPADYGY [NPADYGY, linear mimotope], in assay [2], the relative signal [%] is 21.2%. RLRVNPADY registered a relative signal [%] in assay [2] of 14.9%. In assay [2], GGGSLRFNP registered a relative signal [%] of 13%. For CNLKFNP [CNLKFNP, linear mimotope], the relative signal [%] in assay [2] came out at 11%. The molecule WNPDDYR [WNPDDYR, linear mimotope] came in with a relative signal [%] in assay [2] of 11.4%.

As for RLRWNPADYHG, the relative signal [%] in assay [2] is 12.4%. In turn, VRLRFNP [VRLRFNP, linear mimotope] registered a relative signal [%] in assay [2] of 27.1%.

For RLYWNPADY, the relative signal [%] in assay [2] worked out at 11%. The molecule LRLNPADYG yielded a relative signal [%] in assay [2] of 17.3%. Same read-out and setting: the same measure for SLHWNPADY: 13.6%. As for QWIDVRLRFNP, the relative signal [%] in assay [2] amounted to 20.1%. On to RLHWNPADY, for which the relative signal [%] in assay [2] worked out at 20.2%.

Values taken from patent US20230381328A1, “COMPOUND FOR THE PREVENTION OR TREATMENT OF MYASTHENIA GRAVIS” (ABLEVIA BIOTECH GMBH, priority 2020, published 2023).
